Key:
[1] = biological target: T1, pre-wedge, gp10-7-8 complex (bacteriophage T4) (bacteriophage T4, UniProt P10928 1-602; P19061 1-1032; P19062 1-334); experiment: on-chip gene titration, yield calculated from post-staining
T1 construct: also called pre-wedges

[2] = biological target: T2, gp7, bacteriophage T4 gene product 7 (bacteriophage T4, UniProt P19061 1-1032); experiment: on-chip assemblograms in 1D compartments on gp11-HA, post-staining with gp8
T2 construct: Expressed cell-free; also called gene-7 product
T2 sequence: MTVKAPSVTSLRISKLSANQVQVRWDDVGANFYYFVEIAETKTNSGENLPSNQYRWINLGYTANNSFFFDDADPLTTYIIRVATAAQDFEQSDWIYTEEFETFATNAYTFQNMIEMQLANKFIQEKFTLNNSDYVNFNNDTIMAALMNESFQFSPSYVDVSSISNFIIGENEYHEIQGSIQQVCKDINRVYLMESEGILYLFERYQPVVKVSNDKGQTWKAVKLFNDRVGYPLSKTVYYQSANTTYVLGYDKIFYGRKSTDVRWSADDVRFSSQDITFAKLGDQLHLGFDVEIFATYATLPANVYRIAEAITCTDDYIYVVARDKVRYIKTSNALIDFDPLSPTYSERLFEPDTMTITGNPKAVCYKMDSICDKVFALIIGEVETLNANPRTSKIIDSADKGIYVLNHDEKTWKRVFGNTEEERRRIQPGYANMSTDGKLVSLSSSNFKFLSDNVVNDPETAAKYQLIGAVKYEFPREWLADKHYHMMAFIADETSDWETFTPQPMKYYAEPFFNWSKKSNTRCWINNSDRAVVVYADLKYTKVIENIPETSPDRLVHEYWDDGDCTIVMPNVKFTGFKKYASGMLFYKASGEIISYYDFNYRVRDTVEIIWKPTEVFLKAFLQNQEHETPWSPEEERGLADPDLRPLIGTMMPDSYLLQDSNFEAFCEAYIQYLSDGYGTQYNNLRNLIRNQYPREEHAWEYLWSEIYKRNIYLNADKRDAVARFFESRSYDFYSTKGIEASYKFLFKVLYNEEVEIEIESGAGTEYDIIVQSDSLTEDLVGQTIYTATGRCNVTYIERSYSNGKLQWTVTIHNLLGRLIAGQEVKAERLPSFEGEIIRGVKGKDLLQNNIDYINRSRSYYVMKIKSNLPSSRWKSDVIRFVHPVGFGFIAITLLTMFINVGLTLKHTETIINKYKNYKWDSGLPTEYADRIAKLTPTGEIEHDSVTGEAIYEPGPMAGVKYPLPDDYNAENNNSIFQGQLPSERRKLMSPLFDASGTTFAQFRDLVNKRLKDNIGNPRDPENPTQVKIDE

[3] = biological target: T3, gp10-7 complex (bacteriophage T4) (bacteriophage T4, UniProt P10928 1-602; P19061 1-1032); experiment: on-chip assemblograms in 1D compartments, post-staining
T3 construct: also called gp10-7 complexes

B1: gp6, bacteriophage T4 gene product 6 (other)
chain: MANTPVNYQLTRTANAIPEIFVGGTFAEIKQNLIEWLNGQNEFLDYDFEGSRLNVLCDLLAYNTLYIQQFGNAAVYESFMRTANLRSSVVQAAQDNGYLPTSKSAAQTEIMLTCTDALNRNYITIPRGTRFLAYAKDTSVNPYNFVSREDVIAIRDKNNQYFPRLKLAQGRIVRTEIIYDKLTPIIIYDKNIDRNQVKLYVDGAEWINWTRKSMVHAGSTSTIYYMRETIDGNTEFYFGEGEISVNASEGALTANYIGGLKPTQNSTIVIEYISTNGADANGAVGFSYADTLTNITVININENPNDDPDFVGADGGGDPEDIERIRELGTIKRETQQRCVTATDYDTFVSERFGSIIQAVQTFTDSTKPGYAFIAAKPKSGLYLTTVQREDIKNYLKDYNLAPITPSIISPNYLFIKTNLKVTYALNKLQESEQWLEGQIIDKIDRYYTEDVEIFNSSFAKSKMLTYVDDADHSVIGSSATIQMVREVQNFYKTPEAGIKYNNQIKDRSMESNTFSFNSGRKVVNPDTGLEEDVLYDVRIVSTDRDSKGIGKVIIGPFASGDVTENENIQPYTGNDFNKLANSDGRDKYYVIGEINYPADVIYWNIAKINLTSEKFEVQTIELYSDPTDDVIFTRDGSLIVFENDLRPQYLTIDLEPISQ
notes: Expressed cell-free; also called gene-6 product
[1]
  binding result: binds

B2: gp10, bacteriophage T4 gene product 10 (other)
chain: MKQNINIGNVVDDGTGDYLRKGGIKINENFDELYYELGDGDVPYSAGAWKTYNASSGQTLTAEWGKSYAINTSSGRVTINLPKGTVNDYNKVIRARDVFATWNVNPVTLVAASGDTIKGSAVPVEINVRFSDLELVYCAPGRWEYVKNKQIDKITSSDISNVARKEFLVEVQGQTDFLDVFRGTSYNVNNIRVKHRGNELYYGDVFSENSDFGSPGENEGELVPLDGFNIRLRQPCNIGDTVQIETFMDGVSQWRSSYTRRQIRLLDSKLTSKTSLEGSIYVTDLSTMKSIPFSAFGLIPGEPINPNSLEVRFNGILQELAGTVGMPLFHCVGADSDDEVECSVLGGTWEQSHTDYSVETDENGIPEILHFDSVFEHGDIINITWFNNDLGTLLTKDEIIDETDNLYVSQGPGVDISGDVNLTDFDKIGWPNVEAVQSYQRAFNAVSNIFDTIYPIGTIYENAVNPNNPVTYMGFGSWKLFGQGKVLVGWNEDISDPNFALNNNDLDSGGNPSHTAGGTGGSTSVTLENANLPATETDEEVLIVDENGSVIVGGCQYDPDESGPIYTKYREAKASTNSTHTPPTSITNIQPYITVYRWIRIA
notes: also called gene-10 product
[2]
  binding result: binds

B3: gp8, bacteriophage T4 gene product 8 (other)
chain: MNDSSVIYRAIVTSKFRTEKMLNFYNSIGSGPDKNTIFITFGRSEPWSSNENEVGFAPPYPTDSVLGVTDMWTHMMGTVKVLPSMLDAVIPRRDWGDTRYPDPYTFRINDIVVCNSAPYNATESGAGWLVYRCLDVPDTGMCSIASLTDKDECLKLGGKWTPSARSMTPPEGRGDAEGTIEPGDGYVWEYLFEIPPDVSINRCTNEYIVVPWPEELKEDPTRWGYEDNLTWQQDDFGLIYRVKANTIRFKAYLDSVYFPEAALPGNKGFRQISIITNPLEAKAHPNDPNVKAEKDYYDPEDLMRHSGEMIYMENRPPIIMAMDQTEEINILFTF
notes: Expressed cell-free; also called gene-8 product
[3]
  binding result: binds

Reference: patent US20220213467A1 (YEDA RESEARCH AND DEVELOPMENT, published 2022)
